Laboratory results: publication PMC7094413

Target: SARS-CoV nucleocapsid protein C-terminal domain (residues 248–365) (SARS-CoV TW1 strain)
Test: NMR structure

## SARS-CoV nucleocapsid protein C-terminal domain (residues 248–365) (domain or fragment)
  stoichiometry N: 2
